Square brackets hold non-standard residues; d marks the D form. Ends that are not written are not given here. A^u = urea residue with alanine side chain

To fix the notation:
T1: mouse GLP-1 receptor endogenously expressed in βTC6 cells (mouse, UniProt O35659 22-463)
T1 sequence (looked up): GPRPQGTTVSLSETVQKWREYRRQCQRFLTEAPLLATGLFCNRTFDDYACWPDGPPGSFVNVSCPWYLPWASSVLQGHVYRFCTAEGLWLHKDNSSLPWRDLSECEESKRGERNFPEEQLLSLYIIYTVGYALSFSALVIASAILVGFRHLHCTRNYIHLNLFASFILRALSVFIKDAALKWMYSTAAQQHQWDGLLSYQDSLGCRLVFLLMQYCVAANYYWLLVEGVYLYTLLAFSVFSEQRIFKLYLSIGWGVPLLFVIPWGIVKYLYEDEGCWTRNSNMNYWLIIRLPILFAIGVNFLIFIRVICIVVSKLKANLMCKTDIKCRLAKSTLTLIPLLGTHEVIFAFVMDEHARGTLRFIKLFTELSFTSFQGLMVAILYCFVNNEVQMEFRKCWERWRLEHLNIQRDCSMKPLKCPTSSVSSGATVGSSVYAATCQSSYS

B1: Compound 7 (peptide)
peptide: HAEGTFTSDVSSYLEGQAAKEFIAWLXKGRG
modifications: A^u at position 27 (urea residue with alanine side chain)
B2: Compound 44 (peptide)
peptide: HAEGTFTSDVSSYXEGQAAKEFIAWLVKGRG
modifications: Y^u at position 14 (urea residue with tyrosine side chain)
B3: Compound 12 (peptide)
peptide: XAEGTFTSDVSSYLEGQAAKEFIAWLVKGRG
modifications: H^u at position 1 (urea residue with histidine side chain)
B4: Compound 2 (peptide)
peptide: HAEGTFTSDVSSYLEGQAAKEFIXWLVKGRG
modifications: A^u at position 24 (urea residue with alanine side chain)
B5: Compound 45 (peptide)
peptide: HAEGTFTSDVSSYLEGQXAKEFIAWLVKGRG
modifications: A^u at position 18 (urea residue with alanine side chain)
B6: Compound 5 (peptide)
peptide: HAEGTFTSDVSSYLEGQAAKEFIAWXVKGRG
modifications: A^u at position 26 (urea residue with alanine side chain)
B7: Compound 27 (peptide)
peptide: HAEGTFTSDVSSYLEGQAAKEFIAWLVKGRX
modifications: G^u at position 31 (urea residue with glycine side chain)
B8: Compound 4 (peptide)
peptide: HAEGTFTSDVSSYLEGQAAKEFIAXLVKGRG
modifications: W^u at position 25 (urea residue with tryptophan side chain)
B9: Compound 3 (peptide)
peptide: HAEGTFTSDVSSYLEGQAAKEFIAXLVKGRG
modifications: A^u at position 25 (urea residue with alanine side chain)
B10: Compound 25 (peptide)
peptide: HAEGTFTSDVSSYLEGQAAKEFIAWLVKXRG
modifications: G^u at position 29 (urea residue with glycine side chain)
B11: Compound 73 (peptide)
peptide: H[A^u]EGTFTSDL[A^u]KQLEEEAVRLFIEWLKNGGPSSGAPPSKKKKKK
B12: Compound 36 (peptide)
peptide: HSQGTFTSDYSKYLDSRRAQDFVQWLXNX
modifications: Nle (norleucine) at position 27; A^u at position 29 (urea residue with alanine side chain)
B13: Compound 55 (peptide)
peptide: HSQGTFTSDYSKYLDSRRAQDFXQWLXNT
modifications: A^u at position 23 (urea residue with alanine side chain); Nle (norleucine) at position 27
B14: Compound 58 (peptide)
peptide: HSQGTFTSDYSKYLDSRRAQDFVQWXXNT
modifications: A^u at position 26 (urea residue with alanine side chain); Nle (norleucine) at position 27
B15: Compound 52 (peptide)
peptide: HSQGTFTSDYSKYLDXRRAQDFVQWLXNT
modifications: A^u at position 16 (urea residue with alanine side chain); Nle (norleucine) at position 27
B16: Compound 53 (peptide)
peptide: HSQGTFTSDYSKYLDSXRAQDFVQWLXNT
modifications: A^u at position 17 (urea residue with alanine side chain); Nle (norleucine) at position 27
B17: Compound 51 (peptide)
peptide: HSQGTFTSDYSKYXDSRRAQDFVQWLXNT
modifications: A^u at position 14 (urea residue with alanine side chain); Nle (norleucine) at position 27
B18: Compound 57 (peptide)
peptide: HSQGTFTSDYSKYLDSRRAQDFVQXLXNT
modifications: A^u at position 25 (urea residue with alanine side chain); Nle (norleucine) at position 27
B19: Compound 35 (peptide)
peptide: HSQGTFTSDYSKYLDSRRAQDFVQWLXXT
modifications: Nle (norleucine) at position 27; A^u at position 28 (urea residue with alanine side chain)
B20: Compound 43 (peptide)
peptide: HXEGTFTSDVSSYLEGQAAKEFIAWLVKGRG
modifications: A^c at position 2 (N,N'-linked carbomyl / carbamate residue with alanine side chain)
B21: Compound 46 (peptide)
peptide: HAEGTFTSDVSSYLEGQAAKEFIAWLVXGRG
modifications: K^u at position 28 (urea residue with lysine side chain)

The first test concerns the target T1, mouse GLP-1 receptor endogenously …. The test is described as follows: cell-based or functional assay.
For the molecule B1, the “EC50, GLP-1 Functional Assay (cAMP production, HTRF)” value (“EC50, GLP-1 Functional Assay” for short) stood at 220 pM.
Same read-out and setting: in the case of B2 it was 48 pM; in that of B3, 280000 pM.
B4: the “EC50, GLP-1 Functional Assay” value turned out to be 1500 pM.
On the same count and under the same terms, in the case of B5 it was 36 pM; in that of B6, 420 pM; in that of B7, 81 pM.
As to B8, the “EC50, GLP-1 Functional Assay” value was 260 pM.
Still for that read-out and setting: in the case of B9 it was 460 pM.
The same measure, in the same setting: to B10 belongs 74 pM; to B11, 340 pM.

The target in the next test is human glucagon receptor expressed in transfected CHO cells (human, UniProt P47871 26-477). The test is described as follows: cell-based or functional assay.
B12: the “EC50, Glucagon Functional Assay (cAMP production, HTRF)” value worked out at 26 pM.
Take B13: the “EC50, Glucagon Functional Assay (cAMP production, HTRF)” value turned out to be 34000 pM.
Same read-out and setting: to B14 belongs 35000 pM; to B15, 34000 pM; to B16, 670 pM.
Still for that read-out and setting: in the case of B17 it was 68000 pM; in that of B18, 22000 pM; in that of B19, 440 pM.

A further test addresses T1, mouse GLP-1 receptor endogenously …. The test is described as follows: cell-based or functional assay. This is another data set of the same source.
With B2, the “% bioactivity of reference (reference compound 1)” value worked out at 150%.
Turning to B5, the “% bioactivity of reference (reference compound 1)” value was 200%.
The same measure, in the same setting: to B20 belongs 9%; to B21, 157%.

The values are drawn from US20190142905A1 (UREKA SARL, published 2019).
